± gives the uncertainty stated by the source.
Test: protein stability index of a GFP-peptide fusion (yeast GPS) (PSI 1-4); higher = more stable; sorted into four equal gates, so the index is relative within each strain
Conditions: ubr1∆
Procedure, shortened: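 Sequencing reads from sorted gates were used to score each peptide. The library consisted of tiled 17-residue yeast protein peptides fused downstream of GFP on a Cherry-expressing plasmid, pooled and carried in yeast. Mid-log cultures in leucine-free medium were split into four equal gates by GFP/Cherry ratio, and each gate's plasmids were PCR-amplified and Illumina-sequenced. The protein stability index adds up, over all gates, the read frequency multiplied by the gate number.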

| Sequence | protein stability index |
| --- | --- |
| KRYTSEGTRNRFSYSPP [YMR129W/POM152] | 3.09 ± 0.043 |
| KSAMDTFKSVSKYGMLL [POP3] | 2.45 ± 0.055 |
| KSDTVTSASQPFKFGKT [YOR098C/NUP1] | 1.97 ± 0.052 |
| KSFTNDKIPLNYAMTRN [SRB5] | 2.67 ± 0.069 |
| KSGIPEFTPADPNLSFE [SSN2] | 3.25 ± 0.062 |
| KSHSTVSSSSRHHRKTE [ISW2] | 2.88 ± 0.041 |
| KSICFENCLNNDPEILK [SWI1] | 2.7 ± 0.074 |
| KSLDKKIAKRRQVYKPV [POP3] | 3.5 ± 0.2 |
| KSLEVVNADTVGKTVKQ [NSL1] | 3.08 ± 0.047 |
| KSLGVKSLGGGAALKDI [FAS2] | 2.86 ± 0.057 |
| KSLLLNTLNIDNTARVI [BRN1] | 2.42 ± 0.034 |
| KSPEQCILRFLQLPIED [SWI3] | 1.41 ± 0.038 |
| KSQNTALPSTHKVTQKK [SIR4] | 3.01 ± 0.05 |
| KSSGSSMATPTHSDSHE [ROX3] | 2.52 ± 0.091 |
| KSSWRQEWLANLKLISV [SIR4] | 1.46 ± 0.045 |
| KSTDLTPKGNESEQELS [MTR3] | 3.21 ± 0.054 |
| KSTDNSAIRQVFERFKT [IRR1] | 2.8 ± 0.045 |
| KSWLNRLNNWLFGWNDL [YMR153W/NUP53] | 2.68 ± 0.04 |
| KSYYLNTVMLQGIFKNS [AAR2] | 1.24 ± 0.054 |
| KTGITKKDEDEEADEDM [PRE9] | 2.95 ± 0.23 |
| KTKEAVAALKAVGAHSD [RPL4A] | 3.38 ± 0.062 |
| KTNEESAKMILLSDPTI [PRP8] | 2.92 ± 0.042 |
| KTPEEVEVYAKIFWERL [ISW2] | 3.29 ± 0.085 |
| KTQQNEKSENGENDDDT [RPN3] | 3.34 ± 0.11 |
| KTSNIESVPIYSIDEFF [BRR2] | 2.13 ± 0.083 |
| KTTRLLLIIRSLKNTDA [YJL039C/NUP192] | 1.11 ± 0.059 |

| Sequence | protein stability index |
| --- | --- |
| KTYEPVLNEDDLAFGGE [RPN5] | 3.51 ± 0.12 |
| KVAEVKKLEGTIEYQKL [RPT4] | 3.57 ± 0.082 |
| KVAPAPFGAKSTKSNKA [RPL8B] | 2.7 ± 0.043 |
| KVEIKKVNSRDDSFFNE [PRP28] | 3.38 ± 0.12 |
| KVESQETLNDTIERSLI [YCS4] | 2.97 ± 0.057 |
| KVFSLDPQYLVDDLRPE [ASC1] | 3.15 ± 0.078 |
| KVISNPLLARKQFVVDV [RPS24A] | 2.07 ± 0.05 |
| KVKILEQIDENWSKEDL [SWI3] | 2.89 ± 0.091 |
| KVKNQGADVTNTTQDNG [YCS4] | 3.2 ± 0.057 |
| KVLCLAVAVGNVEMEED [RPL1A] | 1.68 ± 0.044 |
| KVLNEISKTTLTLDPRY [RPN3] | 3.2 ± 0.069 |
| KVSSASAAASESDVAKQ [RPL16B] | 2.97 ± 0.065 |
| KVTQMTPAPKISYKKGA [RPL36B] | 3.21 ± 0.1 |
| KVVIPNLLCYYNLRSLN [RPN3] | 2.65 ± 0.1 |
| KVYYFQGGNNELGTAVG [RPL30] | 2.89 ± 0.072 |
| KWDITTRNSNNLAIVEL [BRR2] | 3.54 ± 0.064 |
| KYCEIMGDNSQLDFTEF [SNF2] | 3.29 ± 0.073 |
| KYHYKEEWLNTKDPDEQ [CSN9] | 3.05 ± 0.093 |
| KYLEQVLDHQRAIPFRR [RPL17A] | 1.78 ± 0.043 |
| KYLPHAILKLLENMPHP [PRP8] | 1.61 ± 0.042 |
| LAAIVSTVIEEFTLFMD [YGL172W/NUP49] | 2.42 ± 0.055 |
| LAALNVWYGLSDGEDGH [SSN2] | 3.12 ± 0.077 |
| LAEEKIRAAGGVVELIA [RPL28] | 2.931 ± 0.02 |
| LAEEVVDNIVNKYQYSL [SRP68] | 2.92 ± 0.046 |
| LAHYVVTAKLLGFTPGE [FAS1] | 1.48 ± 0.12 |
| LAIADVETKLETKVDEL [DSN1] | 2.85 ± 0.087 |

| Sequence | protein stability index |
| --- | --- |
| LAKIKEEEMAPYYKYLC [RPN7] | 1.37 ± 0.2 |
| LAKSGSTEETTANTGTI [TAF14] | 2.39 ± 0.091 |
| LALETVLIKMVKMLRDN [SIR3] | 1.77 ± 0.092 |
| LAMNDDDFLSKKRKAGR [SNF2] | 3.52 ± 0.091 |
| LANNVESKLRDDLERLK [RPS18A] | 3.41 ± 0.049 |
| LAPARVRRRFARGMTSK [RPS15] | 3.03 ± 0.082 |
| LAPNMQLNGNETFSTSA [SNF2] | 2.92 ± 0.096 |
| LASPEVKVHMDSETSDP [DIS3] | 3.12 ± 0.051 |
| LATDVTTLNEMFRYKTN [PUP3] | 2.53 ± 0.1 |
| LATYGLTIDDLGVASFH [FAS2] | 3.11 ± 0.036 |
| LAVCDELGNMTMLITGQ [SIN4] | 2.02 ± 0.045 |
| LAVTNLLIISCIIFITF [YML031W/NDC1] | 1.55 ± 0.03 |
| LAYENKITDKEDLLHYI [POP4] | 3.24 ± 0.088 |
| LCEEYLVNNGQSDLEHD [RPN7] | 2.48 ± 0.12 |
| LCTLNDSKGSLYSVKFA [YGL100W/SEH1] | 2.49 ± 0.071 |
| LDAIDDFIQLKQTAAYR [SSN2] | 3.23 ± 0.22 |
| LDDPVLNAIVSKNSPAE [YJR042W/NUP85] | 2.01 ± 0.078 |
| LDFQTNKRLCDEIATIQ [RPS17A] | 3.18 ± 0.072 |
| LDIPNVSLVVNFQISKK [PRP28] | 2.71 ± 0.069 |
| LDKIYTRPISSQVLDLA [SMC2] | 1.27 ± 0.054 |
| LDKQIEELVEAIVLPMK [RPT5] | 3.43 ± 0.15 |
| LDNFQKSVEKTMIKKTT [SMC3] | 3.17 ± 0.075 |
| LDSNFNLQREIDQAHVS [RPN14] | 2.65 ± 0.054 |
| LDSQETPSTEESRAQNV [SWI3] | 2.37 ± 0.051 |
| LDVSSDRRKARKAYFTA [RPL26A] | 2.12 ± 0.07 |
| LEALMDILLCYQKLFSQ [SRB8] | 3.05 ± 0.081 |

| Sequence | protein stability index |
| --- | --- |
| LEAVNSMIEKGGDWERR [RPN7] | 2.87 ± 0.06 |
| LEEFEFKHGPMSLINDA [SMD2] | 3.23 ± 0.055 |
| LEGTRVSLEERTKNLVS [SMC4] | 3.35 ± 0.08 |
| LEKISSSNKDLEDEKMK [SMC4] | 3.26 ± 0.077 |
| LEKLIFDMTNHYNDSQQ [SRB8] | 2.51 ± 0.036 |
| LELMDSKKTGQFNAQGV [POP1] | 3.48 ± 0.092 |
| LEMSTEDFVKLAPARVR [RPS15] | 2.78 ± 0.07 |
| LENFKSYAGKQVVGPFH [SMC4] | 2.98 ± 0.1 |
| LENMPHPWEQAKEVKVL [PRP8] | 2.94 ± 0.093 |
| LEQEYRLILLLNHRNKN [RMP1] | 1.13 ± 0.046 |
| LEQIQVQLKDANSQIQA [YIL149C/MLP2] | 2.43 ± 0.15 |
| LEQQKQPTGLLKGLNGF [YMR153W/NUP53] | 3.34 ± 0.074 |
| LERARDVNIVNRRLVYS [YCG1] | 1.66 ± 0.13 |
| LERTAIELKTDWVRFLA [RPN1] | 1.17 ± 0.067 |
| LERYVKRCMDDLNPLKT [RPO31] | 3.16 ± 0.041 |
| LESGKETALEFLEKEKQ [SMC4] | 3.48 ± 0.079 |
| LESLKPIDDTMTLLTDS [MTW1] | 2.98 ± 0.046 |
| LEVANDLQLLYVESDED [IRR1] | 1.13 ± 0.046 |
| LEWNMANLLFKKEKLKQ [RPC82] | 1.37 ± 0.082 |
| LFAFNGVARNFHFAIEQ [SIN4] | 3.06 ± 0.064 |
| LFAREIAKSQDKKSCSV [DPB4] | 3.22 ± 0.04 |
| LFGEKSILGKFCPIVEE [YCS4] | 1.73 ± 0.039 |
| LFGENDTSTQAYEEEEE [NUT1] | 3.34 ± 0.075 |
| LFGSKPQGSTTNGGLFG [YGR119C/NUP57] | 3.28 ± 0.037 |
| LFKGTGFNSWEGLFWEK [PRP8] | 1.64 ± 0.04 |
